Data taken from doi:10.1101/421420.

Columns and labels:
[1] = target: Proteus mirabilis suppressor of copper sensitivity protein C (PmScsC) (Proteus mirabilis); assay: SAXS
[2] = target: PmScsCΔLinker (Proteus mirabilis); assay: crystal structure
[3] = target: PmScsCΔLinker (Proteus mirabilis); assay: SAXS

**Q.** With “Proteus mirabilis suppressor of copper sensitivity protein C (PmScsC) (enzyme)” as the substance, how does the percent present as monomer at 0.1 mg/mL [1] read?
**A.** 1%

**Q.** What about the stoichiometry N [1] of the same substance?
**A.** 3

**Q.** What does the source list for PmScsCΔLinker (enzyme)?
**A.** stoichiometry N [2]: 3; Kd [3]: 200 µM; percent dimer at 0.1 mg/mL [3]: 3%; percent dimer at 10 mg/ml [3]: 48%; percent monomer at 0.1 mg/mL [3]: 97%; percent monomer at 10 mg/ml [3]: 40%; percent trimer at 10 mg/ml [3]: 12%
